Laboratory results: PMC2581593 (The Journal of Biological Chemistry, 2008)
Residue numbers refer to the chain shown, from its start. Names may count otherwise.

Target: t-SNARE heterodimer (mouse SNAP-25B and rat syntaxin 1A), reconstituted into vesicles (rat | mouse, UniProt P32851;P60879-1)
Assay: co-flotation

Sequence of t-SNARE heterodimer (mouse SNAP-25B and rat syntaxin 1A), reconstituted into vesicles (P32851 whole entry, chain 1 of 2): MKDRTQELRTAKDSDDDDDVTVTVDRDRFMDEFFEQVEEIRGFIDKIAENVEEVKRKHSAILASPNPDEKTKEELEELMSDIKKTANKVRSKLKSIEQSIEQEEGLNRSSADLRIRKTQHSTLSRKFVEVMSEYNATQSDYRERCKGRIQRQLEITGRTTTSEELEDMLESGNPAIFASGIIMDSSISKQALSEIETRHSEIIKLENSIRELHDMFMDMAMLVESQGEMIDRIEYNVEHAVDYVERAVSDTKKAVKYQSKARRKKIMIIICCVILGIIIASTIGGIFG
Sequence of t-SNARE heterodimer (mouse SNAP-25B and rat syntaxin 1A), reconstituted into vesicles (P60879 whole entry, chain 2 of 2): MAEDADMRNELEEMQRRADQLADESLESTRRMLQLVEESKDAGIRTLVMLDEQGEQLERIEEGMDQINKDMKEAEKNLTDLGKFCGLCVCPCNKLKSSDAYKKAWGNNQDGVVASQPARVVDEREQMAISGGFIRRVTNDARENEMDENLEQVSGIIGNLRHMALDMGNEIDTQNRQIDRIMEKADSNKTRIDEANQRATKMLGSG

B1: syt 1 C2AB T328A (domain or fragment)
chain: KGGKNAINMKDVKDLGKTMKDQALKDDDAETGLTDGEEKEEPKEEEKLGKLQYSLDYDFQNNQLLVGIIQAAELPALDMGGTSDPYVKVFLLPDKKKKFETKVHRKTLNPVFNEQFTFKVPYSELGGKTLVMAVYDFDRFSKHDIIGEFKVPMNTVDFGHVTEEWRDLQSAEKEEQEKLGDICFSLRYVPTAGKLTVVILEAKNLKKMDVGGLSDPYVKIHLMQNGKRLKKKKATIKKNTLNPYYNESFSFEVPFEQIQKVQVVVTVLDYDKIGKNDAIGKVFVGYNSTGAELRHWSDMLANPRRPIAQWHTLQVEEEVDAMLAVKK
  binding result: binds

B2: syt 1 C2AB K313R/K325R/K327R (domain or fragment)
chain: B1 chain with K219R, K231R, K233R, A234T
  binding result: binds

B3: syt 1 C2AB E341A (domain or fragment)
chain: B1 chain with A234T, E247A
  binding result: binds
